Measurements published in PMC10765961 (2024).

How the values were obtained:
Experiment in all cases: microscale thermophoresis
EPHA2ΔC ECD = EPHA2ΔC ECD (Homo sapiens, UniProt P29317)
EPHA2 = EPHA2 (Homo sapiens, UniProt P29317)
[1] = target: T1, EPHA2ΔN intracellular region (Homo sapiens, UniProt P29317)
T1 chain: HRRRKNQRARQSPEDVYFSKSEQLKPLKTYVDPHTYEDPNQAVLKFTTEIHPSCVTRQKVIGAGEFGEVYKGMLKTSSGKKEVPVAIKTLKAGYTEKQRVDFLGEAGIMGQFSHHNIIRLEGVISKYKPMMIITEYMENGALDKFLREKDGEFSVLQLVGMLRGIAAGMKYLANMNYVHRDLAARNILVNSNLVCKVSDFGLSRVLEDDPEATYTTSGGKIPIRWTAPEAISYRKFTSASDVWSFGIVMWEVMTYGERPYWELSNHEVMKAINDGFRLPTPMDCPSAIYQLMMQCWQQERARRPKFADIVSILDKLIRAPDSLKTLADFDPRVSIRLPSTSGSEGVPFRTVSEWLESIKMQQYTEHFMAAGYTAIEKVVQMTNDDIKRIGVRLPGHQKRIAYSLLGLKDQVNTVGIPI

Sequence of EPHA2ΔC ECD (P29317 24-537, stated change not applied): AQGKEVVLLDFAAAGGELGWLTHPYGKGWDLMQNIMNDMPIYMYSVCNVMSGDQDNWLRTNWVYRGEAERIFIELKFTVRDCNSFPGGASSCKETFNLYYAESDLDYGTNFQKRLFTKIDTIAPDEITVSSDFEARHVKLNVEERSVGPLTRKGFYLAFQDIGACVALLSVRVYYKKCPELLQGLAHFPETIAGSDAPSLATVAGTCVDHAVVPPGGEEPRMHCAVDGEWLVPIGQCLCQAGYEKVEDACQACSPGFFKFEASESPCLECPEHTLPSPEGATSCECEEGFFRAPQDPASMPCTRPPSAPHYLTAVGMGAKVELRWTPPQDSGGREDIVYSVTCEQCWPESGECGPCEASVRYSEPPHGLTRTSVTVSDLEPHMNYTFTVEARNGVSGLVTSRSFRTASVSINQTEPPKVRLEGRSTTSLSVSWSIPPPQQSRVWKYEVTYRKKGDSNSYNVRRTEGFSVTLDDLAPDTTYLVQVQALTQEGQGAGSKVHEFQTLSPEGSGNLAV

B1: Claudin-1 (protein)
chain: MANAGLQLLGFILAFLGWIGAIVSTALPQWRIYSYAGDNIVTAQAMYEGLWMSCVSQSTGQIQCKVFDSLLNLSSTLQATRALMVVGILLGVIAIFVATVGMKCMKCLEDDEVQKMRMAVIGGAIFLLAGLAILVATAWYGNRIVQEFYDPMTPVNARYEFGQALFTGWAAASLCLLGGALLCCSCPRKTTSYPTPRPYPKPAPSSGKDYV
modifications: Cy3-labeled CLDN1
Kd (EPHA2ΔC ECD): 582 nM
Kd (EPHA2): 150 nM
Kd [1]: 125 nM
